Results published in PMC6098011, “Insights into degradation mechanism of N-end rule substrates by p62/SQSTM1 autophagy adapter” (Nature Communications, 2018).

What was measured:
MBP-PB1-ZZ D69A (human) = MBP-PB1-ZZ D69A (human) (UniProt Q13501); assay: SPR; BIAcore 2000; MBP-PB1-ZZ WT or D69A immobilised on CM5; R-BiP N407 5-100 μM injected; 20 mM HEPES pH 7.5, 100 mM NaCl, 1 mM DTT
[1] = molecular target: MBP-fused PB1-ZZ of p62 (residues 1-181) wild type (human) (UniProt Q13501); assay: as above

- Kd (MBP-PB1-ZZ D69A (human)): 26.1 µM
- Kd [1]: 20.2 µM
Substance: R-BiP N407 protein (from UniProt P11021 19-654) (domain or fragment)
